Results taken from PMC4715562.

Molecular target: Gp7-MyH7-1526-1571 (bacteriophage φ29 | human)
Assay: crystal structure

stoichiometry N: 2
Substance: Gp7-MyH7-1526-1571 (domain or fragment)
